Data as given in the Human Domainome abundance scans (Beltran et al. 2025).
± gives the uncertainty stated by the source.

B1: POU domain, class 5, transcription factor 1, residues 134 to 212; numbered along this chain, Q01860 (parent)
chain: EESQDIKALQKELEQFAKLLKQKRITLGYTQADVGLTLGVLFGKVFSQTTICRFEALQLSFKNMCKLRPLLQKWVEEAD

Variants of: B1
Assay: abundance fitness (aPCA) (normalised: wild type 0, dead -1); higher = more abundant; growth selection in yeast, the domain comes from the species named
Conditions: Homo sapiens

Row | Variant | abundance fitness
1 | EESQDIKALQKELEQFAKLLKQKRITLGYTQADVGLTLGVLFGKVFSQTTICRFEALQLSFKNMCKLRPLLQWWVEEAD [K73W] | -0.474 ± 0.14
2 | EESQDIKALQKELEQFAKLLKQKRITLGYTQADVGLTLGVLFGKVFSQTTICRFEALQLSFKNMCKLRPLLQSWVEEAD [K73S] | -0.659 ± 0.18
3 | EESQDIKALQKELEQFAKLLKQKRITLGYTQADVGLTLGVLFGKVFSQTTICRFEALQLSFKNMCKLRPLLQGWVEEAD [K73G] | -0.386 ± 0.1
4 | EESQDIKALQKELEQFAKLLKQKRITLGYTQADVGLTLGVLFGKVFSQTTICRFEALQLSFKNMCKLRPLLQPWVEEAD [K73P] | -0.506 ± 0.21
5 | EESQDIKALQKELEQFAKLLKQKRITLGYTQADVGLTLGVLFGKVFSQTTICRFEALQLSFKNMCKLRPLLQIWVEEAD [K73I] | -0.448 ± 0.34
6 | EESQDIKALQKELEQFAKLLKQKRITLGYTQADVGLTLGVLFGKVFSQTTICRFEALQLSFKNMCKLRPLLQMWVEEAD [K73M] | -0.799 ± 0.28
7 | EESQDIKALQKELEQFAKLLKQKRITLGYTQADVGLTLGVLFGKVFSQTTICRFEALQLSFKNMCKLRPLLQAWVEEAD [K73A] | -0.131 ± 0.092
8 | EESQDIKALQKELEQFAKLLKQKRITLGYTQADVGLTLGVLFGKVFSQTTICRFEALQLSFKNMCKLRPLLQFWVEEAD [K73F] | -0.566 ± 0.34
9 | EESQDIKALQKELEQFAKLLKQKRITLGYTQADVGLTLGVLFGKVFSQTTICRFEALQLSFKNMCKLRPLLRKWVEEAD [Q72R] | -0.309 ± 0.096
10 | EESQDIKALQKELEQFAKLLKQKRITLGYTQADVGLTLGVLFGKVFSQTTICRFEALQLSFKNMCKLRPLLEKWVEEAD [Q72E] | 0.342 ± 0.091
11 | EESQDIKALQKELEQFAKLLKQKRITLGYTQADVGLTLGVLFGKVFSQTTICRFEALQLSFKNMCKLRPLLGKWVEEAD [Q72G] | -0.302 ± 0.11
12 | EESQDIKALQKELEQFAKLLKQKRITLGYTQADVGLTLGVLFGKVFSQTTICRFEALQLSFKNMCKLRPLLLKWVEEAD [Q72L] | -0.323 ± 0.14
13 | EESQDIKALQKELEQFAKLLKQKRITLGYTQADVGLTLGVLFGKVFSQTTICRFEALQLSFKNMCKLRPLLIKWVEEAD [Q72I] | -0.119 ± 0.3
14 | EESQDIKALQKELEQFAKLLKQKRITLGYTQADVGLTLGVLFGKVFSQTTICRFEALQLSFKNMCKLRPLLKKWVEEAD [Q72K] | -0.025 ± 0.18
15 | EESQDIKALQKELEQFAKLLKQKRITLGYTQADVGLTLGVLFGKVFSQTTICRFEALQLSFKNMCKLRPLLVKWVEEAD [Q72V] | -0.337 ± 0.13
16 | EESQDIKALQKELEQFAKLLKQKRITLGYTQADVGLTLGVLFGKVFSQTTICRFEALQLSFKNMCKLRPLLAKWVEEAD [Q72A] | -0.354 ± 0.13
17 | EESQDIKALQKELEQFAKLLKQKRITLGYTQADVGLTLGVLFGKVFSQTTICRFEALQLSFKNMCKLRPLLHKWVEEAD [Q72H] | -0.039 ± 0.28
18 | EESQDIKALQKELEQFAKLLKQKRITLGYTQADVGLTLGVLFGKVFSQTTICRFEALQLSFKNMCKLRPLLTKWVEEAD [Q72T] | -0.36 ± 0.17

Row | Variant | abundance fitness
19 | EESQDIKALQKELEQFAKLLKQKRITLGYTQADVGLTLGVLFGKVFSQTTICRFEALQLSFKNMCKLRPLLSKWVEEAD [Q72S] | -0.371 ± 0.15
20 | EESQDIKALQKELEQFAKLLKQKRITLGYTQADVGLTLGVLFGKVFSQTTICRFEALQLSFKNMCKLRPLLMKWVEEAD [Q72M] | -0.31 ± 0.16
21 | EESQDIKALQKELEQFAKLLKQKRITLGYTQADVGLTLGVLFGKVFSQTTICRFEALQLSFKNMCKLRPLLDKWVEEAD [Q72D] | -0.379 ± 0.24
22 | EESQDIKALQKELEQFAKLLKQKRITLGYTQADVGLTLGVLFGKVFSQTTICRFEALQLSFKNMCKLRPLLYKWVEEAD [Q72Y] | -0.582 ± 0.41
23 | EESQDIKALQKELEQFAKLLKQKRITLGYTQADVGLTLGVLFGKVFSQTTICRFEALQLSFKNMCKLRPLLWKWVEEAD [Q72W] | -0.837 ± 0.31
24 | EESQDIKALQKELEQFAKLLKQKRITLGYTQADVGLTLGVLFGKVFSQTTICRFEALQLSFKNMCKLRPLLCKWVEEAD [Q72C] | -0.09 ± 0.17
25 | EESQDIKALQKELEQFAKLLKQKRITLGYTQADVGLTLGVLFGKVFSQTTICRFEALQLSFKNMCKLRPLLPKWVEEAD [Q72P] | -0.438 ± 0.21
26 | EESQDIKALQKELEQFAKLLKQKRITLGYTQADVGLTLGVLFGKVFSQTTICRFEALQLSFKNMCKLRPFLQKWVEEAD [L70F] | 0.145 ± 0.26
27 | EESQDIKALQKELEQFAKLLKQKRITLGYTQADVGLTLGVLFGKVFSQTTICRFEALQLSFKNMCKLRPGLQKWVEEAD [L70G] | -0.574 ± 0.2
28 | EESQDIKALQKELEQFAKLLKQKRITLGYTQADVGLTLGVLFGKVFSQTTICRFEALQLSFKNMCKLRPRLQKWVEEAD [L70R] | -0.653 ± 0.21
29 | EESQDIKALQKELEQFAKLLKQKRITLGYTQADVGLTLGVLFGKVFSQTTICRFEALQLSFKNMCKLRPVLQKWVEEAD [L70V] | -0.406 ± 0.16
30 | EESQDIKALQKELEQFAKLLKQKRITLGYTQADVGLTLGVLFGKVFSQTTICRFEALQLSFKNMCKLRPYLQKWVEEAD [L70Y] | 0.262 ± 0.17
31 | EESQDIKALQKELEQFAKLLKQKRITLGYTQADVGLTLGVLFGKVFSQTTICRFEALQLSFKNMCKLRPPLQKWVEEAD [L70P] | -0.364 ± 0.22
32 | EESQDIKALQKELEQFAKLLKQKRITLGYTQADVGLTLGVLFGKVFSQTTICRFEALQLSFKNMCKLRPTLQKWVEEAD [L70T] | -0.325 ± 0.23
33 | EESQDIKALQKELEQFAKLLKQKRITLGYTQADVGLTLGVLFGKVFSQTTICRFEALQLSFKNMCKLRPQLQKWVEEAD [L70Q] | 0.143 ± 0.29
34 | EESQDIKALQKELEQFAKLLKQKRITLGYTQADVGLTLGVLFGKVFSQTTICRFEALQLSFKNMCKLRPCLQKWVEEAD [L70C] | -0.171 ± 0.29
35 | EESQDIKALQKELEQFAKLLKQKRITLGYTQADVGLTLGVLFGKVFSQTTICRFEALQLSFKNMCKLRPWLQKWVEEAD [L70W] | -0.442 ± 0.22
